# Test results: patent publication US20190367592A1 (AC IMMUNE, published 2019)
# “And” between values parts separate entries of the source, which are not always exact repeats. Identical values can stand only once.
# How the values were obtained:
# [1] = target: T1, AVI-tag biotinylated oligomeric flTau (human, UniProt P10636-8 1-441, site-specific biotin on AVI-tag); test: capture ELISA, antibody on anti-IgG plate, biotinylated oligoTau titrated, O.D.
# T1 construct: also called oligoTau; oligomeric Tau
# Description: (§1) For the oligoTau and monoTau capture ELISAs, antibodies contained in serum-free sterile hybridoma supernatants were immobilized on an anti-IgG coated plate at 500-fold dilution, followed by the incubation of oligoTau or monoTau, both with site-specific biotinylation via an AVI-tag. The target incubations started at 5 μg/mL and then were diluted 8- or 16-fold. Streptavidin-HRP and ABTS substrate was used for signal quantitation in a plate reader (Tecan, Switzerland). Results are expressed as O.D.
# [2] = target: T2, AVI-tag biotinylated monomeric flTau (human, UniProt P10636-8 1-441, site-specific biotin on AVI-tag); test: capture ELISA, antibody on anti-IgG plate, biotinylated monoTau titrated, O.D.
# T2 construct: also called monoTau; monomeric Tau
# Description: as §1
# [3] = target: T3, full-length human Tau (flTau) (human, UniProt P10636-8 1-441); test: indirect ELISA, flTau coated, hybridoma supernatant diluted, O.D.
# T3 construct: range 1-441; bought (SignalChem); also called human Tau-441
# Description: Coating was done overnight in phosphate-buffered saline (PBS) at 4° C. Plates were washed thoroughly with 0.05% Tween-20/PBS and then blocked with 1% bovine serum albumin (BSA) in 0.05% Tween-20/PBS for 1 hr at 37° C. The antibody contained in the hybridoma supernatant was then added at the indicated dilutions, and incubated for 2 hrs at 37° C. after which the plates were washed as described previously.
# For the indirect ELISAs, an AP-conjugated anti-mouse IgG secondary antibody (Jackson ImmunoResearch Laboratories, United Kingdom) was added at 1/6000 dilution in 0.05% Tween-20/PBS for 2 hr at 37° C. After the final wash, plates were incubated with p-nitrophenyl phosphate disodium hexahydrate (pNPP; Sigma-Aldrich, Switzerland) phosphatase substrate solution, and read at 405 nm using an ELISA plate reader (Tecan, Switzerland). Results are expressed as optical densities (O.D.).
# [4] = target: T4, recombinant human Tau monomer, 2N4R isoform (amino acids 2-441) (human, UniProt P10636-8 2-441); test: SPR; Normalized Rmax post-stress (2 weeks 40 C) / pre-stress
# T4 construct: range 2-441; N-terminal His-tag removed with TEV protease; also called monomeric Tau
# Procedure, shortened: (§2)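 Affinities were derived by 1:1 fitting of multi-cycle SPR kinetics, with captured antibody and Tau monomer flowed at 0, 26.5 and 265 nM in HBSP pH7.4 at 25° C. Stability Index was Normalized Rmax (Rmax/Ligand Level) post-stress divided by that pre-stress.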
# [5] = target: T4, recombinant human Tau monomer, 2N4R …; test: SPR, captured IgG, Tau monomer analyte, 1:1 model; fit-quality column: Yes
# Procedure, shortened: as §2
# [6] = target: T4, recombinant human Tau monomer, 2N4R …; test: SPR detailed kinetics, hIgG captured, Tau monomer analyte
# Description: Grafting onto consensus VH3, Vκ2 and Vκ1 frameworks was assessed. The heavy chain graft included murine residue at position 49 (Kabat numbering system). The Vκ2 graft included murine residues in framework positions 2 and 4. The Vκ1 graft included murine residues in framework positions 2, 4 and 43. Humanized variants were constructed by gene synthesis and subcloning into human IgG1 or IgG4 and Kappa chain mammalian expression vectors. Antibodies were expressed by co-transfection of the heavy and light chain plasmids into CHO cells and purified with affinity resin MabSelect Sure. Humanized variants were screened for affinity to human Tau monomer using the Biacore human IgG capture kit, a Series S CM5 chip and a Biacore T200 instrument. […] Association and dissociation of 100, 33, 11 and 3.7 nM human Tau monomer in 10 mM HEPES pH7.4, 150 mM NaCl, 0.05% Tween 20 (running buffer, HBSP) was monitored for 180 seconds and 600 seconds respectively at a flow rate of 30 μl/min. […]
# Antibody variants hu37D3-H9.v1, hu37D3-H9.v2, hu37D3-H9.v5 and hu37D3-H9.v6 were characterized further by surface plasmon resonance with additional antibody concentrations and longer association/dissociation times. These variants were analyzed with a broader range of human Tau monomer concentrations (1.2, 3.7, 11.1, 11.1, 33.3, 100 nM) and increased association (300 seconds) and dissociation (1200 seconds) periods. […]
# [7] = target: T4, recombinant human Tau monomer, 2N4R …; test: SPR screen, hIgG captured, Tau monomer analyte
# Description: Grafting onto consensus VH3, Vκ2 and Vκ1 frameworks was assessed. The heavy chain graft included murine residue at position 49 (Kabat numbering system). The Vκ2 graft included murine residues in framework positions 2 and 4. The Vκ1 graft included murine residues in framework positions 2, 4 and 43. Humanized variants were constructed by gene synthesis and subcloning into human IgG1 or IgG4 and Kappa chain mammalian expression vectors. Antibodies were expressed by co-transfection of the heavy and light chain plasmids into CHO cells and purified with affinity resin MabSelect Sure. Humanized variants were screened for affinity to human Tau monomer using the Biacore human IgG capture kit, a Series S CM5 chip and a Biacore T200 instrument. Antibodies were diluted to 2 μg/ml and captured for 15 seconds at 10 μl/min. Association and dissociation of 100, 33, 11 and 3.7 nM human Tau monomer in 10 mM HEPES pH7.4, 150 mM NaCl, 0.05% Tween 20 (running buffer, HBSP) was monitored for 180 seconds and 600 seconds respectively at a flow rate of 30 μl/min. A 1:1 binding model was applied to the results (Table 7).
# [8] = target: T4, recombinant human Tau monomer, 2N4R …; test: SPR, hIgG captured, Tau monomer analyte
# Description: Affinity was assessed at 25° C. using a Biacore T200 instrument, the GE Biacore human IgG capture kit and a CM5 Series S chip. The hIgG were diluted to 2 μg/ml in 10 mM HEPES pH7.4, 150 mM NaCl, 0.05% Tween 20 (running buffer, HBSP) and captured at a flow rate of 10 μl/min for 22 seconds. […] Between cycles the surface was regenerated using a 30 second injection of 3M Magnesium Chloride at 10 μl/min. A 1:1 binding model was fitted to the data and affinities for hu37D3-H9.v5 and hu37D3-H9.v5.3 (also referred to herein as hu37D3-H9.v5 N28D) calculated using kinetic analysis. Parameters used for the 1:1 fitting included the Instrument default of local fitting for the “RI” parameter.
# [9] = target: T4, recombinant human Tau monomer, 2N4R …; test: SPR screen, hIgG captured, Tau monomer analyte; mean of n = 3
# Text: Antibody 125B11-H3 was humanized onto VH3 and Vκ1 consensus frameworks. The heavy chain graft included murine residues at position 78 (Kabat numbering system). The Vκ1 graft included murine residues in framework positions 43 and 87. The light chain of 113F5-F7 was also humanized onto the Vκ1 framework, with additional murine residues at framework positions 43 and 87. Humanized variant heavy chains (125B11) and light chains (125B11 and 113F5-F7) were co-transfected in multiple combinations and purified in 96-well format as described above. Humanized variants were then screened for affinity for human Tau monomer using the Biacore human IgG capture kit, a Series S CM5 chip and a Biacore T200 instrument. Antibodies were diluted to 2 μg/ml and captured for 15 seconds at 10 μl/min. Association and dissociation of 0, 100 and 500 nM human Tau monomer in HBSP was monitored for 180s and 300s respectively at a flow rate of 40 μl/min. A 1:1 binding model was applied to the results (Table 9).
# Variants hu125B11.v17 (HC3+LC1), hu125B11.v26 (HC4+LC2) and hu125B 11.v28 (HC4+LC4) were selected for high-resolution kinetic analysis based on the affinity screen (Table 10). Antibody 94B2-C1 was humanized onto VH1 and Vx2 frameworks. The heavy chain graft also included murine residues at position 28, 29, 67, 69, 71, and 73 (Kabat numbering system). […]
# T4 sequence (P10636 other isoform, or with tags, fused parts or gaps limits assumed): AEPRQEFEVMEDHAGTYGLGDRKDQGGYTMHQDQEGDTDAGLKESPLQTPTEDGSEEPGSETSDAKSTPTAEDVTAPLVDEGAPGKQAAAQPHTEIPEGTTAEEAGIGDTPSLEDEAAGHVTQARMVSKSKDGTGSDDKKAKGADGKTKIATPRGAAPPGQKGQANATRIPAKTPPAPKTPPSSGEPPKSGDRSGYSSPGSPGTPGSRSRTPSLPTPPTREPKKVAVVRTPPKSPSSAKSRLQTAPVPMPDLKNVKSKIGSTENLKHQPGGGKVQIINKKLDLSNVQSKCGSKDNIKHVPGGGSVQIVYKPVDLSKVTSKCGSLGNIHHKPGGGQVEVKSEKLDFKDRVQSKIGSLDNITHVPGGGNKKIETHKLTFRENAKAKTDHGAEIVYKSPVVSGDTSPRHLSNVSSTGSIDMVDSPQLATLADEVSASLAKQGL
# T3 sequence (P10636 other isoform, or with tags, fused parts or gaps limits assumed): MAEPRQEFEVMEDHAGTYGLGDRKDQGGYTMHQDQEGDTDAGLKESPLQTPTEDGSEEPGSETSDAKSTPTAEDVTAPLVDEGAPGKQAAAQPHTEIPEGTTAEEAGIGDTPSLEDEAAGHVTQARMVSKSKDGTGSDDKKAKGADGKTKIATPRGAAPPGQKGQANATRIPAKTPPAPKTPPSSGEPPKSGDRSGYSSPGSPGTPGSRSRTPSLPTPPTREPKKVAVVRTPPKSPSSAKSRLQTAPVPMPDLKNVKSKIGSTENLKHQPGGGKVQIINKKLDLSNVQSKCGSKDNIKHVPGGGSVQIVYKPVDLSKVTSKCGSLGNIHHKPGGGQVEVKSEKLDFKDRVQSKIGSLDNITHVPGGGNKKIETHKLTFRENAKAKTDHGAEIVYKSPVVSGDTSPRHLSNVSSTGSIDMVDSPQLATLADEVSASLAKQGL
Stability Index [4] [%],Kd [5] [nM],Kd [6],Kd [7] [nM],Binder,also measured
,,,,"15C6-A7 (antibody, V domains shown, hybridoma supernatant) VH: EVQLQQSGPELVKPGASVMMTCKASGYTFTDYYMKWVKQSNGKSLEWIGDLDPYTGGANYNQKFKGKATLTVDKSSSTAYMHLNSLTSEDSAVYYCARSRGYGDSFAYWGQGTLVTVSA VL: DVLMTQTPLSLPVSLGDQASISCRSSQNIVHSNGNTYLEWYLQKPGQSPKLLIYKVSNRFSGVPDKFSGSGSGTDFTLKISRVEAEDLGVYFCFQGSHVPPTFGGGTKLEIK",binding result [1]: binds; binding result [2]: binds; binding result [3]: binds
73,0.9,0.8 nM,1.9,"hu37D3-H9.v5 (antibody, V domains shown, human IgG1 or IgG4, kappa) VH: EVQLVESGGGLVQPGGSLRLSCAASGLIFRSYGMSWVRQAPGKGLEWVATINSGGTYTYYPDSVKGRFTISRDNSKNTLYLQMNSLRAEDTAVYYCANSYSGAMDYWGQGTLVTVSS VL: EDVLTQTPLSLPVTPGQPASISCRSSQSIVHSNGNTYFEWYLQKPGQSPQLLIYKVSNRFSGVPDRFSGSGSGTDFTLKISRVEAEDVGVYYCFQGSLVPWTFGQGTKVEIK",
,,1.1 nM and 1 nM,4.1,"hu37D3-H9.v1 (antibody, V domains shown, human IgG1 or IgG4, kappa) VH: EVQLVESGGGLVQPGGSLRLSCAASGLIFRSYGMSWVRQAPGKGLEWVATINSGGTYTYYPDSVKGRFTISRDNSKNTLYLQMNSLRAEDTAVYYCANSYSGAMDYWGQGTLVTVSS VL: EDQLTQSPSSLSASVGDRVTITCRSSQSIVHSNGNTYFEWYQQKPGKSPKLLIYKVSNRFSGVPSRFSGSGSGTDFTLTISSLQPEDFATYYCFQGSLVPWTFGQGTKVEIK",
70,73.2,,,"hu37D3-H9.v5 N28D hIgG1 (antibody, name in Kabat numbering, V domains shown, human IgG1, kappa; also called hu37D3-H9.v5.3) VH: EVQLVESGGGLVQPGGSLRLSCAASGLIFRSYGMSWVRQAPGKGLEWVATINSGGTYTYYPDSVKGRFTISRDNSKNTLYLQMNSLRAEDTAVYYCANSYSGAMDYWGQGTLVTVSS VL: EDVLTQTPLSLPVTPGQPASISCRSSQSIVHSDGNTYFEWYLQKPGQSPQLLIYKVSNRFSGVPDRFSGSGSGTDFTLKISRVEAEDVGVYYCFQGSLVPWTFGQGTKVEIK",Kd [8]: 160 nM; fold reduction in affinity against hu37D3-H9.v5 [8]: > 100 fold
,,,,"hu94B2 HC1 + LC9 (antibody, V domains shown) VH: EVQLVQSGAEVKKPGASVKVSCKASGYSLTGYTMNWVRQAPGQGLEWIGLISPYNGVTSYNQKFKGRATLTVDKSTSTAYLELSSLRSEDTAVYYCARQGAYWGQGTLVTVSS VL: DVVMTQTPLSLPVTPGQPASISCKSSQSLLDSDGKTYLNWLLQKPGQSPQRLIYLVSKLDSGVPDRFSGSGSGTDFTLKISRVEAEDVGVYYCWQGTHFPWTFGQGTKVEIK",Kd [9]: 3.8 nM
